Experimental findings from PMC11655906, “Required minimal protein domain of flower for synaptobrevin2 endocytosis in cytotoxic T cells” (Cellular and Molecular Life Sciences: CMLS, 2024) are described below.

Several values for one entry are separate records, joined by “and”; a condition that tells them apart may be missing. Equal entries are not always repeated.

The chains are these.
B1: mouse Flower isoform 2, full-length form, with C-terminal mTFP (mFwe2-mTFP) (natural protein, UniProt Q8BG21-1 1-171, looked up)
chain: MSGSGAAGAAAGPAPPAQEEGMTWWYRWLCRLAGVLGAVSCAISGLFNCVTIHPLNIAAGVWMIMNAFILLLCEAPFCCQFVEFANTVAEKVDRLRSWQKAVFYCGMAIVPIVMSLTLTTLLGNAIAFATGVLYGLSALGKKGDAISYARIQQQRQQADEEKLAETFEGEL
notes: mouse Flower (Fwe); also called Mouse Flower 2; source: Fwe KO mouse CTLs, transfected with pMAX plasmid, in lysate
B2: human Flower isoform 4 with C-terminal mTFP (hFwe4-mTFP) (natural protein, UniProt Q9UGQ2-1 1-172, looked up)
chain: MSSSGGAPGASASSAPPAQEEGMTWWYRWLCRLSGVLGAVSCAISGLFNCITIHPLNIAAGVWMIMNAFILLLCEAPFCCQFIEFANTVAEKVDRLRSWQKAVFYCGMAVVPIVISLTLTTLLGNAIAFATGVLYGLSALGKKGDAISYARIQQQRQQADEEKLAETLEGEL
notes: human Flower (CACFD1) isoform hFwe4, contains exon 3 and both the YRWL and YARI motifs; 93% identical to mFwe2; also called human isoform Fwe4; source: Fwe KO mouse CTLs, transfected with pMAX plasmid, in lysate
B3: Drosophila Flower isoform Ubi with C-terminal mTFP (dUbi-mTFP) (natural protein, UniProt Q95T12-1 1-194, looked up)
chain: MSFAEKITGLLARPNQQDPIGPEQPWYLKYGSRLLGIVAAFFAILFGLWNVFSIITLSVSCLVAGILQMVAGFVVMLLEAPCCFVCFGQVNEIAEKVESKPLYFRAGLYIAMAIPPIILCFGLASLFGSGLIFGTGVVYGMMALGKKASAEDMRAAAQQTFGGNTPAQTNDRAGIVNNAQPFSFTGAVGTDSNV
notes: Drosophila Flower (Fwe), ubiquitous splice isoform dUbi; the three Drosophila isoforms are identical in aa 1-146 and differ in the C-terminus; also called dFwe-Ubi-mTFP; Drosophila Ubi isoform; source: Fwe KO mouse CTLs, transfected with pMAX plasmid, in lysate
B4: mouse Flower isoform 1 with C-terminal mTFP (mFwe1-mTFP) (natural protein, UniProt Q8BG21-3 1-106, looked up)
chain: MSGSGAAGAAAGPAPPAQEEGMTWWYRWLCRLAGVLGAVSCAISGLFNCVTIHPLNIAAGVWMIMNAFILLLCEAPFCCQFVEFANTVAEKVDRLRSWQKAVFYCG
notes: Whole isoform cDNA synthesised (BioCAT) and subcloned into pMAX-mTFP; also called Mouse Fwe1; source: Fwe KO mouse CTLs, transfected with pMAX plasmid, in lysate
B5: mouse Flower isoform 3 with C-terminal mTFP (mFwe3-mTFP) (natural protein, UniProt Q8BG21-2 1-128, looked up)
chain: MSGSGAAGAAAGPAPPAQEEGMTWWYRWLCRLAGVLGAVSCAISGLFNCVTIHPLNIAAGVWMIMNAFILLLCEAPFCCQFVEFANTVAEKVDRLRSWQKAVFYCGHGEALRGAWPDVRLPNRNTISL
notes: source: Fwe KO mouse CTLs, transfected with pMAX plasmid, in lysate

What is called stoichiometry N is a count of units in the complex or per binding partner.

The series concerns the molecule itself. As to the kind of experiment: native gel or EMSA; native PAGE (4-16% Bis-Tris, G-250 additive) of lysates of transfected Fwe KO mouse CTLs (modified RIPA: 50 mM Tris pH 7.5, 50 mM NaCl, 1% Triton-X-100, 1 mM EDTA), western blot with anti-DsRed recognising mTFP; oligomeric state read from band size. For orientation: A gel shift assay detects complexes by their altered migration in electrophoresis.
As for B1, the “stoichiometry N” value is 4 and 2.
Next, B2: 2 and 4; B3: 2 and 4.
For B4 the value was 4 and 6 and 2; for B5, 2 and 4 and 6.
